Molecular target: the molecule itself
Assay: SEC-MALS

B1: nCPEB4-NTD (N-terminal domain of neuronal CPEB4, with microexon 4) (domain or fragment, human)
chain: MGDYGFGVLVQSNTGNKSAFPVRFHPHLQPPHHHQNATPSPAAFINNNTAANGSSAGSAWLFPAPATHNIQDEILGSEKAKSQQQEQQDPLEKQQLSPSPGQEAGILPETEKAKSEENQGDNSSENGNGKEKIRIESPVLTGFDYQEATGLGTSTQPLTSSASSLTGFSNWSAAIAPSSSTIINEDASFFHQGGVPAASANNGALLFQNFPHHVSPGFGGSFSPQIGPLSQHHPHHPHFQHHHSQHQQQRRSPASPHPPPFTHRNAAFNQLPHLANNLNKPPSPWSSYQSPSPTPSSSWSPGGGGYGGWGGSQGRDHRRGLNGGITPLNSISPLKKNFASNHIQLQKYARPSSAFAPKSWMEDSLNRADNIFPFPDRPRTFDMHSLESSLIDIMRAENDTIKARTYGRRRGQSSLFPMEDGFLDDGRGDQPLHSGLGSPHCFSHQNGE
  stoichiometry N: ~350 molecules

Source: doi:10.1101/2023.03.19.532587 (bioRxiv, 2023)
